Assay results: publication PMC13022674, “Thymine DNA glycosylase binds to R-loops and excises 5-formyl and 5-carboxyl cytosine from DNA/RNA hybrids”
Positions count from the first letter of the chain named.

Columns and labels:
[1] = molecular target: T1, TDG (thymine DNA glycosylase) (human, UniProt Q13569 1-410); assay: EMSA; Hill 2.9; EMSA: 5 nM substrate, 100 mM NaCl, 2.5 mM MgCl2, 10 mM Tris-HCl pH 7.5, 5% glycerol, 30 min 30 C, 0.6% agarose 1x TBE 4 C; NMR: 0.1 M NaCl, 0.03 mM TCEP, 15 mM; conditions: protein: recombinant; tags: His tag (pET28a, TALON purified); label: 5'-FAM strand 1; 5' overhang 1 nt (strand 1)
T1 sequence (Q13569 whole entry): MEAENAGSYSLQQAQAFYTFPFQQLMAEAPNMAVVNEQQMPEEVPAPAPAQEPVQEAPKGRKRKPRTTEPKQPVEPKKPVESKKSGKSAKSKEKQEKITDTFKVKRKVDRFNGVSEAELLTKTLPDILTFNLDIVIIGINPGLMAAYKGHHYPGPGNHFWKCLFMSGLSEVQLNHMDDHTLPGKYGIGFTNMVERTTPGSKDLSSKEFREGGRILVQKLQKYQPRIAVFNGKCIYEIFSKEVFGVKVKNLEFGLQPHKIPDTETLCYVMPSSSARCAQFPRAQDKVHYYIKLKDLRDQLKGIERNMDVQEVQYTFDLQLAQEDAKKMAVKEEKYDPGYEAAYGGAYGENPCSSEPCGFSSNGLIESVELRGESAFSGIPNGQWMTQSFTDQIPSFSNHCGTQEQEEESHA

[2] = molecular target: T1, TDG (thymine DNA glycosylase); assay: EMSA; Hill 1.8; EMSA: 5 nM substrate, 100 mM NaCl, 2.5 mM MgCl2, 10 mM Tris-HCl pH 7.5, 5% glycerol, 30 min 30 C, 0.6% agarose 1x TBE 4 C; NMR: 0.1 M NaCl, 0.03 mM TCEP, 15 mM; conditions: protein: recombinant; tags: His tag (pET28a, TALON purified); label: 5'-FAM strand 1; blunt; G-UF pair intended
[3] = molecular target: T1, TDG (thymine DNA glycosylase); assay: EMSA; Hill 4.5; EMSA: 5 nM substrate, 100 mM NaCl, 2.5 mM MgCl2, 10 mM Tris-HCl pH 7.5, 5% glycerol, 30 min 30 C, 0.6% agarose 1x TBE 4 C; NMR: 0.1 M NaCl, 0.03 mM TCEP, 15 mM; conditions: protein: recombinant; tags: His tag (pET28a, TALON purified); label: 5'-FAM strand 1; blunt
[4] = molecular target: T1, TDG (thymine DNA glycosylase); assay: EMSA; Hill 2.0; EMSA: 5 nM substrate, 100 mM NaCl, 2.5 mM MgCl2, 10 mM Tris-HCl pH 7.5, 5% glycerol, 30 min 30 C, 0.6% agarose 1x TBE 4 C; NMR: 0.1 M NaCl, 0.03 mM TCEP, 15 mM; conditions: protein: recombinant; tags: His tag (pET28a, TALON purified); label: 5'-FAM strand 1; blunt
[5] = molecular target: T1, TDG (thymine DNA glycosylase); assay: EMSA; Hill 2.7; EMSA: 5 nM substrate, 100 mM NaCl, 2.5 mM MgCl2, 10 mM Tris-HCl pH 7.5, 5% glycerol, 30 min 30 C, 0.6% agarose 1x TBE 4 C; NMR: 0.1 M NaCl, 0.03 mM TCEP, 15 mM; conditions: protein: recombinant; tags: His tag (pET28a, TALON purified); label: 5'-FAM strand 1; blunt
[6] = molecular target: T1, TDG (thymine DNA glycosylase); assay: EMSA; Hill 2.3; EMSA: 5 nM substrate, 100 mM NaCl, 2.5 mM MgCl2, 10 mM Tris-HCl pH 7.5, 5% glycerol, 30 min 30 C, 0.6% agarose 1x TBE 4 C; NMR: 0.1 M NaCl, 0.03 mM TCEP, 15 mM; conditions: protein: recombinant; tags: His tag (pET28a, TALON purified); label: 5'-FAM strand 1; blunt
[7] = molecular target: T1, TDG (thymine DNA glycosylase); assay: EMSA; Hill 3.0; EMSA: 5 nM substrate, 100 mM NaCl, 2.5 mM MgCl2, 10 mM Tris-HCl pH 7.5, 5% glycerol, 30 min 30 C, 0.6% agarose 1x TBE 4 C; NMR: 0.1 M NaCl, 0.03 mM TCEP, 15 mM; conditions: protein: recombinant; tags: His tag (pET28a, TALON purified); label: 5'-FAM strand 1; blunt
[8] = molecular target: T1, TDG (thymine DNA glycosylase); assay: EMSA; Hill 4.9; EMSA: 5 nM substrate, 100 mM NaCl, 2.5 mM MgCl2, 10 mM Tris-HCl pH 7.5, 5% glycerol, 30 min 30 C, 0.6% agarose 1x TBE 4 C; NMR: 0.1 M NaCl, 0.03 mM TCEP, 15 mM; conditions: protein: recombinant; tags: His tag (pET28a, TALON purified); label: 5'-FAM strand 1; blunt
[9] = molecular target: T1, TDG (thymine DNA glycosylase); assay: EMSA; Hill 6.1; EMSA: 5 nM substrate, 100 mM NaCl, 2.5 mM MgCl2, 10 mM Tris-HCl pH 7.5, 5% glycerol, 30 min 30 C, 0.6% agarose 1x TBE 4 C; NMR: 0.1 M NaCl, 0.03 mM TCEP, 15 mM; conditions: protein: recombinant; tags: His tag (pET28a, TALON purified); label: 5'-FAM strand 1; 5' overhang 1 nt (strand 1)
[10] = molecular target: T1, TDG (thymine DNA glycosylase); assay: EMSA; EMSA: 5 nM substrate, 100 mM NaCl, 2.5 mM MgCl2, 10 mM Tris-HCl pH 7.5, 5% glycerol, 30 min 30 C, 0.6% agarose 1x TBE 4 C; NMR: 0.1 M NaCl, 0.03 mM TCEP, 15 mM; conditions: protein: recombinant; tags: His tag (pET28a, TALON purified); blunt

B1: D2-C (dsDNA)
DNA 1: TGTGTCACCACTGCTCACGTACAGAGCTG
DNA 2: CAGCTCTGTACGTGAGCAGTGGTGACAC
Kd [1]: 47 nM

B2: D1-UF (dsDNA)
DNA 1: TGAGGATGTATATATCTGAUGCGCCGGTGGAGC
DNA 2: GCTCCACCGGCGCGTACGATATATACATCCTCA
modifications: 2'-deoxy-2'-fluoroarabinouridine (UF) at strand 1 pos 20
Kd [2]: 32 nM

B3: H1-C (DNA:RNA)
DNA: B2 DNA 1 with U20C
RNA: GCUCCACCGGCGCGUACGAUAUAUACAUCCUCA
modifications: strand 2 RNA
Kd [3]: 67 nM

B4: D1-5caC (dsDNA)
DNA 1: B2 DNA 1 with U20C
DNA 2: B2 DNA 2
modifications: 5-carboxycytosine at strand 1 pos 20
Kd [4]: 25 nM

B5: H1-5caC (DNA:RNA)
DNA: B2 DNA 1 with U20C
RNA: B3 RNA
modifications: 5-carboxycytosine at strand 1 pos 20; strand 2 RNA
Kd [5]: 31 nM

B6: D1-C (dsDNA)
DNA 1: B2 DNA 1 with U20C
DNA 2: B2 DNA 2
Kd [6]: 43 nM

B7: D1-5fC (dsDNA)
DNA 1: B2 DNA 1 with U20C
DNA 2: B2 DNA 2
modifications: 5-formylcytosine at strand 1 pos 20
Kd [7]: 56 nM

B8: H1-5fC (DNA:RNA)
DNA: B2 DNA 1 with U20C
RNA: B3 RNA
modifications: 5-formylcytosine at strand 1 pos 20; strand 2 RNA
Kd [8]: 60 nM

B9: H2-C (DNA:RNA)
DNA: TGTGTCACCACTGCTCACGTACAGAGCTG
RNA: CAGCUCUGUACGUGAGCAGUGGUGACAC
modifications: strand 2 RNA
Kd [9]: 57 nM

B10: TCF21-DNA (unmodified) (dsDNA)
DNA 1: TCCTAGTGTCCACCAAATTCCTCAGCGCTCGCTCACCCTCCTCTACGGCCACGACTCTGGGAGTG
DNA 2: CACTCCCAGAGTCGTGGCCGTAGAGGAGGGTGAGCGAGCGCTGAGGAATTTGGTGGACACTAGGA
Kd [10]: 49 nM
